# Reference: the nanobody polyreactivity screen of Harvey et al. (2022)
# Test: yeast display, Sf9 membrane polyspecificity reagent, FACS + sequencing; frameworks hold sequencing errors
# How it was run: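 Polyreactivity labels are assigned by the sorting gate from which each nanobody was recovered. The gates were low and high (top ~1%), set on anti-HA fluorescence for expression and streptavidin fluorescence for reagent binding. Before sorting, galactose-induced (36–48 hours) yeast display cells were stained for 1 hour at 4 °C with 10% biotinylated, detergent-solubilized Sf9 membrane reagent.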
row,Sequence,polyreactivity (PSR sort gate)
1,QVQLVESGGVLVQAGGSLRLSSAASGRTFFRYTMGWYRQAPGKERELVAAISRSDGTTYYADSVKGRFTISRDSAKNTVYLEMNSLKPEDTAVYYCAKSLPSGYYYWGQGTQVTVSS,low polyreactivity
2,QVQLVESGGGLVQAGGSLRLSCAASGRTFSRYVMGWYRQAPGKERELVAGISQSGARTTYADSVKGRFTISRDNAKNTVYLQMNSLKPEDTAVYYCAAVGYGIRSYYSYDYWGQGTQVTVSS,high polyreactivity
3,QVQRVESGGCLVQAGGSLRLSCAASGIIFGDNVRGWYRQSPGKERQLVAAITSDGSTNYADSVKGRFTISSDNEKNNVYLQMNSLKPEDTAVYYCNVSASYYSPDPKVLVRYDYWGQGSQVTVSS,low polyreactivity
4,QLQLVESGGGLVQAGGSLRLSCAASGSTFGSNAMGWYRQAPGKERELVAAISTSSGSTYYAVSVKGRFTISRDNAMNTVYLQMNSMKPEDTAVYYCNADRHYVPYYSRPRYIPYDYWGQGTQVTVSS,high polyreactivity
5,QVQLVESGGGLVQAGGSLRLSCAASGITFGRNTMAWYIQAPGKERELVAAIDSGGNTYADSVKGRFTISRDNAKITVDLQMNSLKQEDTSVYYCAVVWVWDVWFLVYYWGQGTQVTVSS,low polyreactivity
6,QVQLVESGGGLVQAGGSLRLSCAASGFTFVPYAMGWYIQAPGKERELVAAISSRGDSTYYADSVKGRFTISRDNAKNTVYLQMNSLKPEDTAVYYCNARTTPHMDYWGQGTQVTVSS,low polyreactivity
7,QVQLVESAGGLVQAGGSLRLSCAASGLTFVPNAMGWYRQAPGKEREFVAAISNNGGRTYYADSVKGRFTISRDNAKNTVYLEMNSLKPEDTAVYYCAKFLSPGERHSYDYWGQGTQVTVSS,high polyreactivity
8,QVQLVESGGGLVQAGGSLRLICAAYGRIFQGYAMGWYRQAPGKERELVAAITLSGGSTYYADSVKGRFTISRDNAKNTVYLQMNSLKPEDTAVSYCNAYYPDEPSLYDYWGQGTQVTVSS,low polyreactivity
9,QVQLVESGGGLVQAGGSLRLSCSASGITFLANAMAWYRPATGKERELVATITSRGASSYYADSVKVRFTISRDNAKNTVYLQMNSLKPEDTAVYYCAATVRRRYERYNDWAQGTQVTVSS,high polyreactivity
10,QVQLVESGGGLVQAGGSLRLSCAASGRIFKYYTMVWYRQAPGKERELVAAINSRGGTTYYADSVKGRFTISRDNAKNTVYLQMNSLKPVDTAVYYCAIDRIRDAGYRGLHRFDYWGQGTQVTLSS,low polyreactivity
11,QVQIVESGGALVQAGCSLRLSCAASGSTFWYYVMGWYRQAPGKERELVAAISIVGSTYYADSVKGRFTLSRDNAKNTVYLQMNSLKPEDTAVYYCAADIYQYGYDYWGQGTQVTVSS,low polyreactivity
12,QVQLVESGGGLVQAGGSLRLSCAASGIIFSEYAMGWNRKAPGKERELVAAISKSGGRTYYADSVKGRFTISRDNAKNTVYLQMNSLKPEDTAVYYCAARHAPILGDHGMKYWGQGTQVTVSS,high polyreactivity
13,QVQLVESGGGLVQAGGSLSLSCAASGRTLYSNAMGWYRPAPGKERELVAAISRRGSSTYYADSVKGRFTISRDNAKNSVFLQMNSLKPEDTAVYYCARYKYTRQTRVEYGYWGQGTQVTVSS,high polyreactivity
14,QVQLVESGGGLVQAGGSLRLSCAASGSIFSVYAMGWYRQAPGKERELVAAISTRGGSTYYADSVKGRFTISRDNAKNTVYLQMNSLKPEDTAVYYCAKRWPQYTDYKPMYYWGLGTQVTVSS,high polyreactivity
15,QVQLVESGGGLVQAGGSLRLSCAASGRIFHWYVMGWYRQAPGKERELVAAISWSSGSTYADSVKGRFTISRDNAKNTVYLQMNSLKPEDTAVYYCNAKTYYPPFGYWGQGTQVTVSS,low polyreactivity
16,QVQLVESGGGLVQAGGSLRLSCAASGSTFYYNAMGWYRQAPGKERELVARISRSGGSTYADSVKGRFTISRDNAKKTVSFQMNSLKPEDTAVYYCNADAYGTQEFTSYAVRYDYWGQGTEVTVSS,low polyreactivity
17,QVQLVESGGGLVQAGGSLRLSCAASGFILTSYAMGWYRKAPGKERELVAAISSRGGRTYYADSVKGRFTISRDNEKNTVYLQMNSLKPEDTAVYYCNAGVYVVGDFDYWGLGTQVTVSS,high polyreactivity
18,QVQLVESGGRIFQAGGSLRLSCAASGLIFPYYVMGWYRQAPGKERELVADITWSGGRTYYADSVKGRFTISRDNAKNTVYLQMNSLKPEDTSVYYCKAETGGVYDNYYYVGEYYFWGQGTQVTVSS,low polyreactivity
19,QVQLVESGGGLVQAGGSLRLSCAASGSILAGYAMGWYRQAPGKERELVAAITGGYVRSYYADSVKGRFTISRDNAKNTDYLQMNSLKPEDTAVYYCAATWGSVQKGTYYYWGQGTQVTVSS,low polyreactivity
20,QVQLVESGGGLVQAGGSLRLSCAASGRTFVGYAMGWYRQAPGKERELVAVISGRGGSTYYADSVKGRFTISRDNAKNTVYLQMNSLKPEDTAVYYCAAYVARKWTSGYWGQGTQVTVSS,high polyreactivity
21,QVQLVESGGGLVQAGGSLRLSCAATGRIFRVYAMGWYRQAPGKVRELVAAISSGGSTNYADSVKGGFTISRDNAKNTVYLQMKSLKPEDTAVYYCAADYWYRLFWYYGAPLDYWGQGTQVTVSS,low polyreactivity
22,QVQLVESGGGLVQAGGSLRLSCAASGSTFGEYPMGWYRQAPGKEREFVAAITFSDDSTYYADSVKGRFTISRDNAKNTVYLQMNSLKPEDTAVYYCAAVLSRHYDYWGQGTQVTVSS,high polyreactivity

row,Sequence,polyreactivity (PSR sort gate)
1,QVQLVESGGGLDQAGGSLRLSCAASGLTFAYYTMGWSRQEPGKERELVADISRSGGSTYYADSVKGRFTISRDNAKNTVYLQMNSLKPEDTAVYYCAAYRYGSRYGYEYWGQGTQVTVSS,high polyreactivity
2,QVQLVESGGGLLQAGGSLRLSCAASGRIFYYYAMGWYRQAPGKEREFVARNRSSGGSTYADSVKGRFTISRDNAKNTVYLQMNSLKPEDTAVYYCARDGYTAVEYDYWGQGTQVTVSS,low polyreactivity
3,QVQLVESGGGLVQAGGSLRLSCAASGFTFIRYAMGWYRQAPGKERELVATITRSGGSTYYADSVKGRFTISRDNAKNTVYLQMNSLKPEDTAVYYCAKRGTLGSYYYWGQGTQVTVSS,high polyreactivity
4,QVQLVESGGGLVQAGGSLRLSCAASGSTFTSYDMGWYRQAPGKERELVAAITISSGGTYYADSVKGRFTISRDNAKITVYLQMNSLKPEDTAVYYCAADIFADASYDYWGQGTQVTVSS,low polyreactivity
5,QVQLEESGGRLVQAGASLRLSCAASGSIFEDYVMGWYRHAPGKERELVADITSGGTTYYADSVKGRFTISRDYAKNTVYLQMNRLKPEATAVYYCNAYLIVDYGDETPYASLHDYWGQGTQVTVSS,low polyreactivity
6,QVQLVESGGGLVQAGGSLRLSCAASGFIFQPYAMGWSRQAPGKERELVAAITSRGGRTYYADSVKGRFTISRDNAKNTVYLQMNSLKPEDTAVYYCNADIYASEYYYWGQGTQLTVSS,low polyreactivity
7,QVQLVESGGGLVQAGGSLRLSCAASGSTFAVNAMGWYRQAPGKERELVAVITGNGANTYYADSVKGRFTISRDNAKNTVYLQMNSLKPEDTAVYYCNARLFSQSHYYYWGQGTQVTVSS,high polyreactivity
8,QVQLVESGGGLVQPGGSLRLSCAASGSTFSWNAMGWYRQAPGKERELVASITWGGGSTYYADSVKGRFTISRDTAKNTVYLQMNSLKPEDTAVYYSAAKYGTSKYSRYYYWGQGTQVTVSS,high polyreactivity
9,QVQLVESGGGLVQAGGSLRLSCAAYGRILSLYAMGWYRQAPGKERQLVAAIRWSGSRTYYADSVKGRFTISRDNAKNTVYLQMNSLKPEDTAVYYCAARDSTNLLSGYTHYYWGQGTQVTVSS,high polyreactivity
10,QVQLVESGGGLVQAGGSLRLSCAASGLIFAYNTMGWYRQAPGKERELVAGITSSGSTYYADSVKGRFTISRDNEKNTVYLQMNSLKPEDTAVYYCAAEWDDGRSWYWYYLVGFEYWGQGTQVTVSS,high polyreactivity
11,QVQLVDSGGALVQAGGSLRLSCAASGFIFRDNAMGWYRQAPGKESELVAAISSRGGSTYYADSVKGRFTISRDYAKNSVYLQMNRLKPEDTAVYYCAIRPYKSRVQMDCWGQGTQVTVSS,high polyreactivity
12,QVQLEESGGGLVQAGGSLRLICAASGRTCGSNTMGWYRQAPGKERELVAASTISCGSTYYADSVKGRFTFSRDNAKNTVYLQMNSLKPDVTALDYCATRLWGQGGGRTTSYMYYWGQGTQVTVSS,high polyreactivity
13,QVQLVESGGGLVPAGGSLRLSCAASGSTFAKYAMGWYRQAPGKERELVASIRLSGGSTYYADSVKGRFTISRDHAQNTVYLQMNSLKPEDTAVYYCNKQFATFYYGFHYYYWGQGTQVTVSS,low polyreactivity
14,HVQLVESGGGLVQAGGSLRVSCAASGSTFTRNAMGWYRQAPGKERELVAAITLRGGRTYYADSVKGRFTISRDNAKNTVYLQMNSLKPEDTAVYYCAAKPYTAYSYYEQRGRKYDYWGQGTQVTVSS,low polyreactivity
15,QVQHVESGGGLVQAGGSLRLSCAASGRTFFSYAMGLYRHAPGKERELVAAITYSGGRTYYADSVKGRFTISRDNAKNTVYLQMNSLKPEDTAVYYCAATHYREKIDYWGQGTQVTVSS,low polyreactivity
16,QVQLVESGGGLVQAGGSLRLSCAASGGTFDYNAMGWYRQAPGKERELVAAITSGASTYYADSVKGRFTISRDNAKNTVYLQMNSLKPEDTAVYYCAKGPTPGYDYWGQGTQVTVSS,low polyreactivity
17,QVQLVESGGGLVQAGGSLRLSCAASGSTVYTNAMGWYRQAPGKERELVAAISSSGDSTYYADSVKGRFTISRDNAKNTVYLQMNSLKPEDTAVYYCAADKYLSYDFWGQGTQVTVSS,low polyreactivity
18,QVQLVESGGGLVQAGGSLRLSCAASGSIFPHYAMGWSRQAPGKEREFVATISGSTGRTYYADSVKGRFTISRDNAKNTVYLQMNSLKPEDTAVYYCATSVGYYLPPIKYDYWGQGTQVTVSS,low polyreactivity
19,QVQLVESGGGLVQAGGSLRLSCAASGIIFATYAMGWYRQAPGKERELVASISTGDSTNYADSVKGRFTISRDNAKNTVYLQMNSLKPEDTAVYYCNADSYPYYVYGSNDYWGQGTQVTVSS,low polyreactivity
20,QVQLVESGGGLVQAGGSLRLSCAASGSIFVYYAMGWYRQAPGKDRELVAAITTSGGSTYYADSVKGRFTISRDNAKNTVYLQMNSLKPEDTAVYYCAAVLLAWYWSYSVPWAYDYWGQGTQVTVTS,low polyreactivity
21,QGQLVESGGGLVQAGGSLRLSCAASGSIFIGNAMGWYRQAPGKERELVAAITGRGGRTYYADSVKGRFSISRDNAKNTVYLQMNSLKPVDTAVYDCNARSGSSYSGYYYWGQGTQVTVSS,high polyreactivity
